According to patent US20030143656A1:
Values belong to the binder of their own block, whether it stands above or below them.

What was measured:
[1] = biological target: GST-PDK1 I119A (human), O15530; assay: cell-based or functional assay
[2] = biological target: 412E-p70 S6K-T2 (His-tagged, insect cells) (human) (UniProt P23443); assay: SPR, His-PDK1 injected over 412E-p70 S6K-T2 amine-coupled to a CM5 chip, steady state
412E-p70 S6K-T2 (His-tagged, insect cells) (human), sequence (P23443 other isoform, or with tags, fused parts or gaps): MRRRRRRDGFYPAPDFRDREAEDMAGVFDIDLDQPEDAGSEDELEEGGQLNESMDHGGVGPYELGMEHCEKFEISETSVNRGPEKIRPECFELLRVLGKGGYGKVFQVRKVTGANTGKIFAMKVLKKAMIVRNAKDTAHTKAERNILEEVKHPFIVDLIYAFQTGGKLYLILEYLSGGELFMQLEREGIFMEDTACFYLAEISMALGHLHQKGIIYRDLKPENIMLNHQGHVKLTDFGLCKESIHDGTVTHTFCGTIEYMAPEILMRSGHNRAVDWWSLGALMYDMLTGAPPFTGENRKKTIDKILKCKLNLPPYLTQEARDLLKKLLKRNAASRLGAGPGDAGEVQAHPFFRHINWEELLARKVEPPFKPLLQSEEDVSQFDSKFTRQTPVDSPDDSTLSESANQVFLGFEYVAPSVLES

inhibition by 2 µM PIFtide of the activation of S6K1-T2[T412E] and SGK1[T422D] by the PDK1 mutant [1]: 50%
inhibition by 35 µM PIFtide of the activation of S6K1-T2[T412E] and SGK1[T422D] by the PDK1 mutant [1]: > 95%
stimulation of the PDK1 mutant towards T308tide by PIF [1]: 2 fold
B1: PIFtide (peptide)
peptide: REPRILSEEEQEMFRDFDYIADWC

Kd [2]: 8 µM
B2: His-PDK1 (enzyme, human, UniProt O15530 52-556, looked up, not shown: small tags and cut ends)
chain: DGTAAEPRPGAGSLQHAQPPPQPRKKRPEDFKFGKILGEGSFSTVVLARELATSREYAIKILEKRHIIKENKVPYVTRERDVMSRLDHPFFVKLYFTFQDDEKLYFGLSYAKNGELLKYIRKIGSFDETCTRFYTAEIVSALEYLHGKGIIHRDLKPENILLNEDMHIQITDFGTAKVLSPESKQARANSFVGTAQYVSPELLTEKSACKSSDLWALGCIIYQLVAGLPPFRAGNEYLIFQKIIKLEYDFPEKFFPKARDLVEKLLVLDATKRLGCEEMEGYGPLKAHPFFESVTWENLHQQTPPKLTAYLPAMSEDDEDCYGNYDNLLSQFGCMQVSSSSSSHSLSASDTGLPQRSGSNIEQYIHDLDSNSFELDLQFSEDEKRLLLEKQAGGNPWHQFVENNLILKMGPVDKRKGLFARRRQLLLTEGPHLYYVDPVNKVLKGEIPWSQELRPEAKNFKTFFVHTPNRTYYLMDPSGNAHKWCRKIQEVWRQRYQSHPDAAVQ
